Values belong to the binder of their own block, whether it stands above or below them. Numbered stars: 1 amine (or outer) side, 2 acyl side, 3 side chain; on linkers, the order of the positions; unused ones are H or OH. Square brackets hold non-standard residues; d marks the D form. Ends that are not written are not given here. * marks the point of attachment. εLys = N[C@@H](CCCCN[*:1])C(=O)[*:2]; Adipoyl = O=C(CCCCC(=O)[*:2])[*:1]; boroPro = OB(O)[C@@H]1CCCN1*
Columns and labels:
Assay in all cases: cell-based or functional assay
[1] = target: T1, T cell receptor of the PLP 139-151 specific T cell clone 5B8.G8.E6.H12
[2] = target: T cell receptor of the PLP 139-151 specific T cell clone SPL.C1.H2.F2
[3] = target: T2, T cell receptor of the PLP 139-151 specific T cell clone 4E3.B11.D9.H10.H6
[4] = target: T cell receptor of the PLP 139-151 specific T cell clone 2E5.G10.G5.E5
[5] = target: T cell receptor of the PLP 139-151 specific T cell clone 7A5.F10.G11
[6] = target: T1, T cell receptor of the PLP 139-151 …; remark: listed apart in the source
[7] = target: T2, T cell receptor of the PLP 139-151 …; remark: listed apart in the source
CD26 on H9 T cells = CD26 on H9 T cells (UniProt P27487 1-766, limits assumed)
Chain of CD26 on H9 T cells (P27487 whole entry): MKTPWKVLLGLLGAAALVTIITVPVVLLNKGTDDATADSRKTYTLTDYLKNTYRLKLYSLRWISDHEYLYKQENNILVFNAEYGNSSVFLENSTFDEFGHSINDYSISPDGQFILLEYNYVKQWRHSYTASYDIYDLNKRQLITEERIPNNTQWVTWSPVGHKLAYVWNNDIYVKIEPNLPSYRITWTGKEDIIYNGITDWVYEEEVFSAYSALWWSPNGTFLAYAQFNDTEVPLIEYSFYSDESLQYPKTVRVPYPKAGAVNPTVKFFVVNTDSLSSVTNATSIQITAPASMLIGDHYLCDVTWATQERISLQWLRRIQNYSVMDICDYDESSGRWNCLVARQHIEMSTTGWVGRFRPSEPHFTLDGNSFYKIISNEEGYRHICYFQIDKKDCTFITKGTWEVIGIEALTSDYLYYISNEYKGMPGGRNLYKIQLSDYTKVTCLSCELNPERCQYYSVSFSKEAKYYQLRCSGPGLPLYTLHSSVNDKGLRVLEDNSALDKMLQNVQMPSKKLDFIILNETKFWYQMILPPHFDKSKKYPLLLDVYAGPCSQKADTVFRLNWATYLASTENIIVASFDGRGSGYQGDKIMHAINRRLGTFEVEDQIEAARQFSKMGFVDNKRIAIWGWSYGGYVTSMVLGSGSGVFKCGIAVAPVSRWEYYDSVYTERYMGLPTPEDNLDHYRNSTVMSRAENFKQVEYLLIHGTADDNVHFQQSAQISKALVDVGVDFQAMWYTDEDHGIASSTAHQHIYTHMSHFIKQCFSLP

- proliferation (thymidine uptake), antigen dose 0.1 µM [1]: 106 3H counts
- proliferation (thymidine uptake), antigen dose 1 µM [1]: 349 3H counts
- proliferation (thymidine uptake), antigen dose 10 µM [1]: 9180 3H counts
- proliferation (thymidine uptake), antigen dose 100 µM [1]: 41100 3H counts
- proliferation (thymidine uptake), antigen dose 0.1 µM [2]: 423 3H counts
- proliferation (thymidine uptake), antigen dose 1 µM [2]: 107 3H counts
- proliferation (thymidine uptake), antigen dose 10 µM [2]: 400 3H counts
- proliferation (thymidine uptake), antigen dose 100 µM [2]: 809 3H counts
- proliferation (thymidine uptake), antigen dose 0.1 µM [3]: 318 3H counts
- proliferation (thymidine uptake), antigen dose 1 µM [3]: 125 3H counts
- proliferation (thymidine uptake), antigen dose 10 µM [3]: 534 3H counts
- proliferation (thymidine uptake), antigen dose 100 µM [3]: 1930 3H counts
- proliferation (thymidine uptake), antigen dose 0.1 µM [4]: 101 3H counts
- proliferation (thymidine uptake), antigen dose 1 µM [4]: 288 3H counts
- proliferation (thymidine uptake), antigen dose 10 µM [4]: 70 3H counts
- proliferation (thymidine uptake), antigen dose 100 µM [4]: 1510 3H counts
- proliferation (thymidine uptake), antigen dose 0.1 µM [5]: 117 3H counts
- proliferation (thymidine uptake), antigen dose 1 µM [5]: 222 3H counts
- proliferation (thymidine uptake), antigen dose 10 µM [5]: 406 3H counts
- proliferation (thymidine uptake), antigen dose 100 µM [5]: 2320 3H counts
Binder: HSLGKWLGHPDKF [Myelin proteolipid protein peptide PLP 139-151 (HSLGKWLGHPDKF)]

- enhancement of the proliferative response against PLP 139-151 [6]: ~200 fold
- enhancement of the proliferative response against PLP 139-151 [7]: ~2000 fold
- proliferation (thymidine uptake), antigen dose 1 µM [1]: 22000 3H counts
- proliferation (thymidine uptake), antigen dose 10 µM [1]: 53600 3H counts
- proliferation (thymidine uptake), antigen dose 100 µM [1]: 34700 3H counts
- proliferation (thymidine uptake), antigen dose 0.1 µM [2]: 681 3H counts
- proliferation (thymidine uptake), antigen dose 1 µM [2]: 2530 3H counts
- proliferation (thymidine uptake), antigen dose 10 µM [2]: 17500 3H counts
- proliferation (thymidine uptake), antigen dose 100 µM [2]: 31600 3H counts
- proliferation (thymidine uptake), antigen dose 0.1 µM [3]: 3690 3H counts
- proliferation (thymidine uptake), antigen dose 1 µM [3]: 8580 3H counts
- proliferation (thymidine uptake), antigen dose 10 µM [3]: 15800 3H counts
- proliferation (thymidine uptake), antigen dose 100 µM [3]: 17600 3H counts
- proliferation (thymidine uptake), antigen dose 0.1 µM [4]: 175 3H counts
- proliferation (thymidine uptake), antigen dose 1 µM [4]: 7740 3H counts
- proliferation (thymidine uptake), antigen dose 10 µM [4]: 26400 3H counts
- proliferation (thymidine uptake), antigen dose 100 µM [4]: 36700 3H counts
- proliferation (thymidine uptake), antigen dose 0.1 µM [5]: 187 3H counts
- proliferation (thymidine uptake), antigen dose 1 µM [5]: 8200 3H counts
- proliferation (thymidine uptake), antigen dose 10 µM [5]: 35500 3H counts
- proliferation (thymidine uptake), antigen dose 100 µM [5]: 44000 3H counts
Binder: HSLGKWLGHPDKFAAAAAA-{εLys-boroPro}

- augmentation of IL-2 production by anti-CD3 (OKT3) stimulated H9 cells (CD26 on H9 T cells): ≤ 4 fold
B1: KbP2-Adipate (di(L-Lysine-L-boroProline)adipate) (peptide)
peptide: Lys(Adipoyl)-[boroPro]
modifications: also: dimer: two Lys-boroPro joined by adipoyl linker between lysine ε-amino groups

Source: patent US6875737 (TRUSTEES OF TUFTS COLLEGE, dated 2005)
